Target: Cav3.2 calcium channel α-subunit, full length, human (human, UniProt O95180 1-2353)
Assay: cell-based or functional assay

Sequence of Cav3.2 calcium channel α-subunit, full length, human (O95180 whole entry): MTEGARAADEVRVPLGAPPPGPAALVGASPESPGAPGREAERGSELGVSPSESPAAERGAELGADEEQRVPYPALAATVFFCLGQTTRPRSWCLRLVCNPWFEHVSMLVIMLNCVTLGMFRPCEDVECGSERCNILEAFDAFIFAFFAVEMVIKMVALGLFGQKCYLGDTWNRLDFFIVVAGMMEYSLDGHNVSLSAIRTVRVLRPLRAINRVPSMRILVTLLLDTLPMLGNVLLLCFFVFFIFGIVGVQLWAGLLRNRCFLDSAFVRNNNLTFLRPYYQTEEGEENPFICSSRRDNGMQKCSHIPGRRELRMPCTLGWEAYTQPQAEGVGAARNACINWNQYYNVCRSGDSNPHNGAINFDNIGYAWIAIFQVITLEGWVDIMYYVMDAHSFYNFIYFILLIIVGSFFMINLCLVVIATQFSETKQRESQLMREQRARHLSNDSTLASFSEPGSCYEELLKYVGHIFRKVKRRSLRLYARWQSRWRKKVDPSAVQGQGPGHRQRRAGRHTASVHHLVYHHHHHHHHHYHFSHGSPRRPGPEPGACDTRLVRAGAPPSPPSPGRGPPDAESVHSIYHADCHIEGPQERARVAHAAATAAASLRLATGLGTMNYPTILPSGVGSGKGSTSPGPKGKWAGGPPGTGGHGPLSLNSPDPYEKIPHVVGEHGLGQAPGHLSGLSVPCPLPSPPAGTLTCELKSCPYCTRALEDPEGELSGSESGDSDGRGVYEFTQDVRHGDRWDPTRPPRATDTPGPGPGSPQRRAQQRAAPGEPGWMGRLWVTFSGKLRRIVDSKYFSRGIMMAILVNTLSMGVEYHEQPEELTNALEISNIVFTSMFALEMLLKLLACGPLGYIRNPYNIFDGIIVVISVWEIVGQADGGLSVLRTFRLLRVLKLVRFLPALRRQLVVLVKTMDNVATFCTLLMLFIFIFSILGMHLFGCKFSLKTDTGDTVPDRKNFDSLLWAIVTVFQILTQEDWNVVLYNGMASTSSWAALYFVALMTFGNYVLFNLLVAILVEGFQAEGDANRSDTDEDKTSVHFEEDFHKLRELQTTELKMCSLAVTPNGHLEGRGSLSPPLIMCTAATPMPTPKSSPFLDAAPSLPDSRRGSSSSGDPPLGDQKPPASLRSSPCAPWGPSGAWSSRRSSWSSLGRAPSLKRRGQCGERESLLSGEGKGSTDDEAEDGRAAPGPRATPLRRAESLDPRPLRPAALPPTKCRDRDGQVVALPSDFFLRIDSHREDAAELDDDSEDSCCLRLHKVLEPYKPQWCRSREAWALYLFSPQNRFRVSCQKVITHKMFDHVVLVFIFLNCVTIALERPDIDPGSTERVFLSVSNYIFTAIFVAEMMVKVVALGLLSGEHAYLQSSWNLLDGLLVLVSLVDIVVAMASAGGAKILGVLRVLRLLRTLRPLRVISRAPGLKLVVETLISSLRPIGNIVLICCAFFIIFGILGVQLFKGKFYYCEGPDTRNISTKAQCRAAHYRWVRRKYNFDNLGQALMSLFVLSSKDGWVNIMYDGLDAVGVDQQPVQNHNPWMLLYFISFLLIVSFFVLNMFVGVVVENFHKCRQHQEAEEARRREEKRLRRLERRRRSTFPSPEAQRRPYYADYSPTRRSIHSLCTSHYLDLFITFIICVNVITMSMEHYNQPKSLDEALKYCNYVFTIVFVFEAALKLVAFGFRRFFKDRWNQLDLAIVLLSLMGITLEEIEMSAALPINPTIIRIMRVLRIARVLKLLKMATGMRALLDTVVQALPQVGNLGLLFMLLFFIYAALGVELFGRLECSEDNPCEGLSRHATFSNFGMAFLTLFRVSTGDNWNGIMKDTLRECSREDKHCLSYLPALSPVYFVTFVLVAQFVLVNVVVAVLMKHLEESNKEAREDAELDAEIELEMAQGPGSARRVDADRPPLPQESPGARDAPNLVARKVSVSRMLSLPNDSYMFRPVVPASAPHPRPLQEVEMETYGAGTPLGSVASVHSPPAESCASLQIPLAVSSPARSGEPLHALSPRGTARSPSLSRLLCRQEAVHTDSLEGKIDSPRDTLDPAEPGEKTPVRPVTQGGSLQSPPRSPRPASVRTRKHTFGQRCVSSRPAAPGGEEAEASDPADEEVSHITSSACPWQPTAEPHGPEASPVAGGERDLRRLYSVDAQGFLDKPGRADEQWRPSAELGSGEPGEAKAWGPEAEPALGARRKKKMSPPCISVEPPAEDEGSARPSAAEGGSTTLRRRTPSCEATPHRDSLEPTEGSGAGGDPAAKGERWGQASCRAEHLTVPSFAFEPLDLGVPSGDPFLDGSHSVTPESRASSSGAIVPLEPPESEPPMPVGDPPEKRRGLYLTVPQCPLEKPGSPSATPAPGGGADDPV

B1: KCa1.1 potassium channel α-subunit, full length, myc-tagged, human (natural protein)
chain: not shown
B1 was tested, and the “fold increase of the P2/P1 ratio of KCa1.1 current at +40 mV when P2 is preceded by a −30 mV prepulse, whole-cell patch clamp of tsA-201 cells coexpressing Cav3.2 and KCa1.1” value was 2.7 fold.
